Measured values from US20110138496, “POLYPEPTIDE FOR IMPROVING TOLERANCE TO IRON DEFICIENCY IN PLANTS, AND USE THEREOF” (published 2011).

Assays:
[1] = molecular target: T1, AK072874 B3-domain fragment, MBP fusion (Oryza sativa, UniProt Q7XKC5 Q7XKC5:151-433); test: competition; 30-fold excess mutated IDE1 competitors; CATGC specifically recognized; conditions: tags: MBP (pMAL-c2)
T1 sequence: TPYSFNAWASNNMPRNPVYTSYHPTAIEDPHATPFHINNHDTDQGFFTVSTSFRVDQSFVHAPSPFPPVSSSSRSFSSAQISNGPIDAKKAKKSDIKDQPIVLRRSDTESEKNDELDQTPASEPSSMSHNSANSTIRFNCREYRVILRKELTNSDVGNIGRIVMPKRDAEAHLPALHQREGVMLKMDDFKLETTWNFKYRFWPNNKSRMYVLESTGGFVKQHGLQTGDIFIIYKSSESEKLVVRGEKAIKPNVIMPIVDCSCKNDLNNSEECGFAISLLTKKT
Procedure: (§1) Next, the following operation was carried out for gel shift assay. First, partial ORFs containing a B3 DNA-binding domains of the respective candidate proteins were obtained by use of the following primers: a primer including the sequences shown in, respectively, SEQ ID NOS: 52 (forward) and 53 (reverse), for the 501st-726th amino acids of OsVP1; a primer including the sequences shown in, respectively, SEQ ID NOS: 54 (forward) and 55 (reverse), for the 141st-362nd amino acids of AK107456; a primer including the sequences shown in, respectively, SEQ ID NOS: 56 (forward) and 57 (reverse), for the 151st-433rd amino acids of AK072874; a primer including the sequences shown in, respectively, SEQ ID NOS: 58 (forward) and 59 (reverse), for the 1st-289th amino acids of AK109920; and a primer including the sequences shown in, respectively, SEQ ID NOS: 60 (forward) and 61 (reverse), for the 287th-672nd amino acids of AK101356. Then, each of the partial ORFs was inserted into pMAL-c2 (New England Biolabs) so as to be fused in frame to a maltose-binding protein (MBP) gene. By using a plasmid thus obtained, a fused protein of each of the candidate proteins and the MBP was produced in accordance with manufacturer's instructions. […]

[2] = molecular target: T2, IDEF1 (AK107456) B3-domain fragment, MBP fusion (Oryza sativa, UniProt Q6Z1Z3 SEQ:141-362); test: as above; conditions: tags: MBP (pMAL-c2)
T2 chain: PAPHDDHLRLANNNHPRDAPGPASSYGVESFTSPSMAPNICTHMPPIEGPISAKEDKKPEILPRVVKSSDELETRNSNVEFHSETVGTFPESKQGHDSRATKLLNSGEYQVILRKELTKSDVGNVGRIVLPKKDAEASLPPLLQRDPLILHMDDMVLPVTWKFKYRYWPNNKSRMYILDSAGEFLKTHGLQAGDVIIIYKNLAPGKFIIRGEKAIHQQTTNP
Procedure: as §1

[3] = molecular target: T3, IDEF2 NAC domain, MBP fusion (Oryza sativa); test: EMSA; 500 ng fusion protein; competition with 30- or 50-fold excess mutants shows CA[A/C]G(TTT) recognized; conditions: tags: MBP (pMAL-c2); label: labeled
T3 chain: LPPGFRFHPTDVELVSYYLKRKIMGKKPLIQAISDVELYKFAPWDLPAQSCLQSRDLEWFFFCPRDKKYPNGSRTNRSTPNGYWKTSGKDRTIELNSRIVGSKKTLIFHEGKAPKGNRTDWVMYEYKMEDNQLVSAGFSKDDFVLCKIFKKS
Procedure: Then, specific binding of IDEF2 to IDE2 was confirmed by the EMSA method. An IDEF2 NAC domain amplified by a primer including the base sequences shown in, respectively, SEQ ID NOS: 64 and 65, was cloned to a pMAL-c2 vector, and was used to produce an IDEF2-MBP fused protein. Then, a labeled […] including the base sequence (SEQ ID NO: 41) including IDE2 was incubated with 500 ng of the IDEF2-MBP fused protein.
Next, competition experiments were carried out by addition of 30-fold or 50-fold excess unlabeled competitors. FIG. 10 and (a) of FIG. 12 show mutations introduced into polynucleotide fragments, which were used as the competitors. The IDE2 probe was incubated with the 30-fold or 50-fold excess unlabeled competitors and 500 ng of the IDEF2-MBP fused protein. FIG. 10 and (b) of FIG. 12 show the result of the competition experiments. As shown in FIG. 10 and (b) of FIG. 12, IDEF2 predominantly recognized a CA[A/C]G(TTT) sequence (SEQ ID NO: 33 or 34) within IDE2.

[4] = molecular target: T1, AK072874 B3-domain fragment, MBP fusion; test: EMSA; specific binding; conditions: tags: MBP (pMAL-c2); label: labeled (EMSA probe)
Procedure: as §1

[5] = molecular target: T2, IDEF1 (AK107456) B3-domain fragment, …; test: EMSA; specific binding; conditions: tags: MBP (pMAL-c2); label: labeled (EMSA probe)
Procedure: as §1

[6] = molecular target: T4, OsVP1 B3-domain fragment, MBP fusion (Oryza sativa, UniProt P37398 P37398:501-726); test: EMSA; no specific binding; conditions: tags: MBP (pMAL-c2); label: labeled (EMSA probe)
T4 sequence: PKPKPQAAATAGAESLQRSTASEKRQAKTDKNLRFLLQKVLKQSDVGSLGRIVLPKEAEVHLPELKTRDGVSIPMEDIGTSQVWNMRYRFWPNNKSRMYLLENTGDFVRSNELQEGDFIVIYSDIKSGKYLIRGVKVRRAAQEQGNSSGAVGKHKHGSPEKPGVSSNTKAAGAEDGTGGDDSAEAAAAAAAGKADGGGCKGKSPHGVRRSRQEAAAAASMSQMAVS
Procedure: as §1

B1: IDE1 (dsDNA)
DNA 1: ATCAAGCATGCTTCTTGC
DNA 2: GCAAGAAGCATGCTTGAT
[1]
  binding result: binds
[2]
  binding result: binds

B2: IDE2 EMSA probe (dsDNA)
DNA 1: GAGAGTGGGTTGAACGGCAAGTTTCACGCTGTCACTATCGTCCTCG
DNA 2: CGAGGACGATAGTGACAGCGTGAAACTTGCCGTTCAACCCACTCTC
[3]
  binding result: binds

B3: IDE2-IDE1x2 (tandemly duplicated IDE1 probe) (dsDNA)
DNA 1: AAGCTTGAATTCGATATCTTGAACGGCAAGTTTCACGCTGTCACTATCAAGCATGCTTCTTGCTTGAACGGCAAGTTTCACGCTGTCACTATCAAGCATGCTTCTTGCACGCGTCTCGAGTCGCGAATCG
DNA 2: CGATTCGCGACTCGAGACGCGTGCAAGAAGCATGCTTGATAGTGACAGCGTGAAACTTGCCGTTCAAGCAAGAAGCATGCTTGATAGTGACAGCGTGAAACTTGCCGTTCAAGATATCGAATTCAAGCTT
[4]
  binding result: binds
[5]
  binding result: binds
[6]
  binding result: no binding
